According to patent publication US20020164595, “Sequence specific DNA binding by p53” (published 2002):
Positions count from the first letter of the chain named.

B1: synthetic oligo 2 (A:T-substituted dimer) (dsDNA)
DNA 1: AGGAATTCCTAGGAATTCCT
DNA 2: AGGAATTCCTAGGAATTCCT
B2: consensus monomer (dsDNA)
DNA 1: AGGCATGTCT
DNA 2: AGACATGCCT
B3: synthetic oligo 5 (direct half-site repeats) (dsDNA)
DNA 1: AGGCAAGGCAAGGCAAGGCA
DNA 2: TGCCTTGCCTTGCCTTGCCT
B4: fragment A subfragment 5 (dsDNA)
DNA 1: AGTGAAAGCAGGTAGATTGCCTTGCCTGGACTTGCCTGGCCTTGCCTTTTCTTTC
DNA 2: GAAAGAAAAGGCAAGGCCAGGCAAGTCCAGGCAAGGCAATCTACCTGCTTTCACT
B5: synthetic oligo 6 (cloned consensus dimer) (dsDNA)
DNA 1: TGCAGGAATTCGATAGGCATGTCTAGGCATGTCTATCAAGCTTATCGAT
DNA 2: ATCGATAAGCTTGATAGACATGCCTAGACATGCCTATCGAATTCCTGCA
B6: synthetic oligo 8 (cloned consensus dimer, inverted) (dsDNA)
DNA 1: B5 DNA 1 with G17A, T22C
DNA 2: B5 DNA 2 with A28G, C33T
B7: synthetic oligo 7 (cloned consensus dimer, inverted) (dsDNA)
DNA 1: B5 DNA 1 with G27A, T32C
DNA 2: B5 DNA 2 with A18G, C23T
B8: synthetic oligo 1 (A:T-substituted monomer) (dsDNA)
DNA 1: AGGAATTCCT
DNA 2: AGGAATTCCT
B9: synthetic oligo 9 (cloned monomer) (dsDNA)
DNA 1: TGCAGGAATTCGATAGGCATGTCTATCAAGCTTATCGAT
DNA 2: ATCGATAAGCTTGATAGACATGCCTATCGAATTCCTGCA

Experiments:
p53 wild-type [1] = target: T1, p53 wild-type (Homo sapiens, UniProt P04637 P04637:1-393); assay: pulldown; details: chain copies: 4
T1 sequence (P04637 whole entry, one chain of several): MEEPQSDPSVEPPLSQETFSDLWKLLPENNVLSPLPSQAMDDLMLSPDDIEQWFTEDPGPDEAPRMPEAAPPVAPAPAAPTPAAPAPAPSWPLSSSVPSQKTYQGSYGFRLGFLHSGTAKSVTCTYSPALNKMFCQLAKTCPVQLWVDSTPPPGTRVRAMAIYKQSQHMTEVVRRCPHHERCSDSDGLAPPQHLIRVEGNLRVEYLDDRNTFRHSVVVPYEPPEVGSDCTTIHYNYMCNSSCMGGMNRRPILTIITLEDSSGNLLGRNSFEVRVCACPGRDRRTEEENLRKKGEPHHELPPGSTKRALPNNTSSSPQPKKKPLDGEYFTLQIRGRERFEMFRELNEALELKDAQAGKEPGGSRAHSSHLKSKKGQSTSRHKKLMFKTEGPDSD

p53 wild-type [2] = target: T1, p53 wild-type; assay: pulldown; monomer alone, not shown; details: chain copies: 4
p53 wild-type [3] = target: T1, p53 wild-type; assay: pulldown; details: chain copies: 4; label: 32P
Source text: FIG. 11A. […] For each sample, the control lane (C) contained 2% of the total DNA used in the binding reaction, and was composed of two fragments: 2.9 kb vector DNA fragment, and a fragment of 40 to 80 bp containing no insert (lane 9; XhoI plus Pst1 digest of pBluescript II SK+), the 10 bp consensus monomer sequence 5′-[…]-3′ (lane 5), or multimers of this sequence arranged as indicated (lanes 1 to 4, 6, to 8). Bound DNA from the IP is shown in the B lanes.
To determine if the 10 bp consensus monomer could bind p53, a synthetic oligonucleotide (5′-[…]-3′) containing the consensus sequence was studied. Oligonucleotide duplexes were tested either directly or after cloning into plasmid vectors. […] Two variants of the consensus motif were also tested for binding. In the first, the two critical G:C bp's at position 4 and 6 of the monomer were substituted with A:T bp's (FIG. 10, synthetic oligonucleotides 1,2).

Binder	binding result (p53 wild-type [1])	binding result (p53 wild-type [3])	further results
B1	no binding	–	–
B2	–	–	binding result (p53 wild-type [2]): no binding
B3	no binding	–	–
B4	–	–	binding result (p53 wild-type [1]; label: 32P): binds
B5	–	binds	–
B6	–	binds	–
B7	–	binds	–
B8	no binding	–	–
B9	–	no binding	–
